Assay results reported in the Immune Epitope Database (IEDB).

Experiments:
Test in all cases: IEDB peptide-MHC binding, purified MHC/competitive/radioactivity; filed as Kd, often an IC50 or EC50 that approximates it; ≥ and ≤ were set here for values at or beyond the usual limits of such assays
HLA-A*03:01 = target: HLA-A*03:01
HLA-A*11:01 = target: HLA-A*11:01
HLA-A*31:01 = target: HLA-A*31:01
HLA-A*33:01 = target: HLA-A*33:01
HLA-A*68:01 = target: HLA-A*68:01
[1] = source organism: Vaccinia virus WR
[2] = source organism: Dengue virus 2 Jamaica/1409/1983
[3] = source organism: Dengue virus 1 Brazil/97-11/1997
[4] = source organism: Dengue virus 3 Martinique/1243/1999
[5] = source organism: Dengue virus 4 Philippines/H241/1956
[6] = source organism: SARS coronavirus Tor2
[7] = source organism: Lymphocytic choriomeningitis virus (strain Armstrong)
[8] = source organism: Mammarenavirus machupoense
[9] = source organism: Dengue virus 1 Singapore/S275/1990

Work on IINFTISMRY yielded a Kd (HLA-A*03:01; [1]) of 35.3 nM, a Kd (HLA-A*11:01; [1]) of 1.71 nM and a Kd (HLA-A*31:01; [1]) of 1420 nM. The Kd (HLA-A*33:01; [1]) was 5210 nM and the Kd (HLA-A*68:01; [1]) was 690 nM.
In the case of TAIFLTTLSR, the Kd (HLA-A*11:01; [2]) is reported as 298 nM and the Kd (HLA-A*68:01; [2]) is reported as 2.83 nM.
ITTDDLVKSY was tested, and the Kd (HLA-A*03:01; [1]) was no less than 70100 nM, the Kd (HLA-A*11:01; [1]) was 11000 nM and the Kd (HLA-A*31:01; [1]) was no less than 70000 nM. It also gave a Kd (HLA-A*33:01; [1]) of no less than 70000 nM and a Kd (HLA-A*68:01; [1]) of 1020 nM.
For LGMMVLKIVR, the Kd (HLA-A*33:01; [2]) was 1910 nM.
YMTSMKRFK showed a Kd (HLA-A*03:01; [3]) of 897 nM.
With INMLKRVRNR the Kd (HLA-A*31:01; [4]) was 1570 nM.
Sequence RAGRVIDPR has a Kd (HLA-A*31:01; [5]) of 29.1 nM.
With VTLFFLSGK the Kd (HLA-A*03:01; [3]) was 3.82 nM and the Kd (HLA-A*11:01; [3]) was 12.4 nM.
For ITANPIVTDK, the Kd (HLA-A*11:01; [3]) was 83 nM and the Kd (HLA-A*68:01; [3]) was 40.5 nM.
Work on LIGANYLGK yielded a Kd (HLA-A*31:01; [6]) of 8930 nM, a Kd (HLA-A*33:01; [6]) of no less than 77700 nM and a Kd (HLA-A*68:01; [6]) of 10900 nM.
Work on RLCTREEFTK yielded a Kd (HLA-A*03:01; [4]) of 76.6 nM.
TFTNDSIISH gave a Kd (HLA-A*03:01; [7]) of no less than 47000 nM, a Kd (HLA-A*31:01; [7]) of no less than 64700 nM and a Kd (HLA-A*33:01; [7]) of 8720 nM. The Kd (HLA-A*68:01; [7]) was 6850 nM.
Work on ALTALNDMGK yielded a Kd (HLA-A*03:01; [2]) of 1290 nM and a Kd (HLA-A*11:01; [2]) of 1370 nM.
MVLLIPEPEK gave a Kd (HLA-A*11:01; [4]) of 115 nM.
With ATKSEHTGR the Kd (HLA-A*31:01; [4]) was 1.85 nM.
Work on LSSRATWAK yielded a Kd (HLA-A*11:01; [5]) of 56.5 nM.
Sequence IMKSVGTGK has a Kd (HLA-A*03:01; [4]) of 4.95 nM.
Work on YMIGQTGIQR yielded a Kd (HLA-A*33:01; [5]) of 79.2 nM and a Kd (HLA-A*68:01; [5]) of 98.3 nM.
For KWLKECGVDR, the Kd (HLA-A*31:01; [5]) was 364 nM.
Work on AIDAYPLTK yielded a Kd (HLA-A*11:01; [6]) of 11.6 nM, a Kd (HLA-A*31:01; [6]) of 8890 nM and a Kd (HLA-A*33:01; [6]) of no less than 44600 nM. For the same sequence, the Kd (HLA-A*68:01; [6]) was 6970 nM.
For GVTLFFLSGK, the Kd (HLA-A*03:01; [3]) was 13.1 nM and the Kd (HLA-A*11:01; [3]) was 23.8 nM.
EFGKAKGSR gave a Kd (HLA-A*33:01; [4]) of 125 nM.
Work on NMLKRVRNR yielded a Kd (HLA-A*33:01; [4]) of 109 nM.
For AGLAFSLMK, the Kd (HLA-A*11:01; [3]) was 11.2 nM.
For CQFDHVNTLH, the Kd (HLA-A*03:01; [8]) was 18400 nM, the Kd (HLA-A*11:01; [8]) was 8740 nM and the Kd (HLA-A*31:01; [8]) was 1930 nM. For the same sequence, the Kd (HLA-A*68:01; [8]) was 9280 nM.
KLRPKWLDAR showed a Kd (HLA-A*31:01; [5]) of 2.11 nM.
In the case of VFKEKVDTR, the Kd (HLA-A*33:01; [4]) is reported as 63.1 nM.
LLVWHTWQK showed a Kd (HLA-A*03:01; [4]) of 59 nM.
DVFFIPPEK showed a Kd (HLA-A*68:01; source organism: Dengue virus 2 16681-PDK53) of 3.62 nM.
Work on ATRLENIMWK yielded a Kd (HLA-A*03:01; [3]) of 42.3 nM and a Kd (HLA-A*11:01; [3]) of 6.34 nM.
Work on AARGYISTR yielded a Kd (HLA-A*31:01; [2]) of 11.1 nM and a Kd (HLA-A*33:01; [2]) of 315 nM.
In the case of QVAINQVRR, the Kd (HLA-A*68:01; [3]) is reported as 104 nM.
EFKEFAAGR was tested, and the Kd (HLA-A*68:01; [2]) was 594 nM.
For KVVQHENLK, the Kd (HLA-A*03:01; source organism: Dengue virus 3 Singapore/8120/1995) was 49 nM.
Sequence ILARWGSFK has a Kd (HLA-A*03:01; [9]) of 2.13 nM and a Kd (HLA-A*11:01; [9]) of 77.8 nM.
FLMSGKGIGK was tested, and the Kd (HLA-A*03:01; [2]) was 42.6 nM and the Kd (HLA-A*11:01; [2]) was 99.8 nM.
For NMLSIINKR, the Kd (HLA-A*31:01; [4]) was 42.1 nM and the Kd (HLA-A*33:01; [4]) was 23 nM.
KILDAVVAQE was tested, and the Kd (HLA-A*03:01; source organism: Homo sapiens) was 847 nM.
Work on MFEATARGAR yielded a Kd (HLA-A*33:01; [3]) of 22.3 nM.
